Data on three molecules can be found in US20240415975A1 (ABTIS, published 2024).

Where “and” joins values, the source holds several entries; their conditions need not be identical. Identical values can stand only once.

In test [1] the target is Claudin 18.2 protein (CLDN18.2), expressed on cells (UniProt P56856). The experiment in a line: cell-based ELISA (OD 450 nm) on SNU601 cells (CLDN18.2+); regression in GraphPad Prism. (In general: An ELISA detects its analyte on a solid surface through an enzyme-linked reagent.)
Test [2] has the same target. The experiment in a line: cell-based ELISA (OD 450 nm) on MIA PaCa-2-CLDN18.2 cells; regression in GraphPad Prism.
Test [3] has the same target. The experiment in a line: cell-based ELISA (OD 450 nm) on PATU8988S cells (CLDN18.2+); regression in GraphPad Prism.
Test [4] addresses CLDN18.2 virus-like particle (VLP) in which the claudin 18.2 protein (CLDN18.2) was expressed (UniProt P56856). Kind of test: indirect ELISA (OD 450 nm) on plate coated with CLDN18.2 VLP; regression in GraphPad Prism.
Test [5] deals with T1, Claudin 18.2 protein (CLDN18.2), expressed on cells (UniProt P56856-2 1-261).
T1 construct: whole, on cells; One molecule is used for all cell lines carrying CLDN18.2; the cell line is named under assay
Kind of test: cell-based ELISA on CHO-K1 cells transiently transfected with CLDN18.2; regression in GraphPad Prism (row labelled Kd, text says EC50).
From the text: (§1) The measured results were used for regression analysis in GraphPad PRISM® 9.0 software to calculate EC50 and Bmax.

In test [6] the target is T2, Claudin 18.1 protein (CLDN18.1), expressed on CHO-K1 cells (UniProt P56856 1-261, limits assumed).
T2 construct: whole, on cells; also called CLDN18.1~CHO-K1
Kind of test: cell-based ELISA on CHO-K1 cells transiently transfected with CLDN18.1.
From the text: as §1

In test [7] the target is T1, Claudin 18.2 protein (CLDN18.2), …. The experiment in a line: cell-based or functional assay.
Test [8] concerns the target T3, CLDN18.2 virus-like particle (VLP) in which the claudin 18.2 protein (CLDN18.2) was expressed (UniProt P56856 1-261).
T3 construct: Bought reagent; also called CLDN18.2 VLP; CLDN18.2~VLP
The experiment in a line: indirect ELISA on plate coated with CLDN18.2 VLP; regression in GraphPad Prism (row labelled Kd, text says EC50).

In the case of Zolbetuximab (antibody-B), the Bmax in test [1] turned out to be 1.7; in test [2], 3.05; in test [3], 1.21; in test [4], 2.13.

B1: ADC-A (MMAE conjugated with antibody-A) (antibody, human IgG1, kappa, V domains shown)
VH: QVQLVESGGGVVQPGRSLRLSCAASGFSLTTYGVHWVRQAPGKGLEWVAVIWAGGSTNYNSALMSRFTISRDNSKNTLYLQMNSLRAEDTAVYYCARAAYYGNGLDYWGQGTMVTVSS
VL: DIVMTQSPLSLPVTPGEPASISCKSSQTLLNSGNQKNYLTWYLQKPGQSPQLLIYWASTGESGVPDRFSGSGSGTDFTLKISRVEAEDVGVYYCQNAYFYPFTFGGGTKVEIKR
modifications: payload (PEG8)2-BG-MMAE linked through a linker to lysine residue 246 or 248 (EU numbering) of each heavy chain (DAR 2)
notes: which of K246 or K248 carries the payload is not resolved
For orientation: Kd means the constant that tells how readily two partners part at equilibrium. Read a high Kd as lower affinity. With B1, the dissociation constant (Kd) in test [5] was 0.123 µg/mL and 0.82 nM. The binding result in test [6] was “no binding”. Further, in test [7], the “IC50 (nM), cell viability (CellTiter-Glo), MIA PaCa-2 (CLDN18.2+)” value came out at 0.101 nM; the “IC50 (nM), cell viability (CellTiter-Glo), NUGC4 (CLDN18.2+)” value is 1.59 nM; the “IC50 (nM), cell viability (CellTiter-Glo), PATU8988S (CLDN18.2+)” value is 0.279 nM; the “IC50 (nM), cell viability (CellTiter-Glo), SNU601 (CLDN18.2+)” value was 0.095 nM. In addition, the Kd in test [8] was 0.0527 µg/mL and 0.351 nM.

B2: anti-Claudin 18.2 antibody (Anti-CLDN18.2 mAb) (antibody-A) (antibody, human IgG1, kappa, V domains shown)
VH: QVQLVESGGGVVQPGRSLRLSCAASGFSLTTYGVHWVRQAPGKGLEWVAVIWAGGSTNYNSALMSRFTISRDNSKNTLYLQMNSLRAEDTAVYYCARAAYYGNGLDYWGQGTMVTVSS
VL: DIVMTQSPLSLPVTPGEPASISCKSSQTLLNSGNQKNYLTWYLQKPGQSPQLLIYWASTGESGVPDRFSGSGSGTDFTLKISRVEAEDVGVYYCQNAYFYPFTFGGGTKVEIKR
notes: two heavy and two light chains; Elsewhere called an IgG1 type anti-CLDN18.2 antibody; Obtained from GenScript ProBio
Turning to B2, the Kd was 0.0636 µg/mL and 0.424 nM in test [5]; 0.0319 µg/mL and 0.212 nM in test [8]. For the same molecule, the binding result in test [6] is given as “no binding”.
